According to patent publication US6946265 (Xencor, dated 2005):

T1: full-length human growth hormone receptor (hGHR) (human, UniProt P10912 19-638)
T1 sequence (looked up): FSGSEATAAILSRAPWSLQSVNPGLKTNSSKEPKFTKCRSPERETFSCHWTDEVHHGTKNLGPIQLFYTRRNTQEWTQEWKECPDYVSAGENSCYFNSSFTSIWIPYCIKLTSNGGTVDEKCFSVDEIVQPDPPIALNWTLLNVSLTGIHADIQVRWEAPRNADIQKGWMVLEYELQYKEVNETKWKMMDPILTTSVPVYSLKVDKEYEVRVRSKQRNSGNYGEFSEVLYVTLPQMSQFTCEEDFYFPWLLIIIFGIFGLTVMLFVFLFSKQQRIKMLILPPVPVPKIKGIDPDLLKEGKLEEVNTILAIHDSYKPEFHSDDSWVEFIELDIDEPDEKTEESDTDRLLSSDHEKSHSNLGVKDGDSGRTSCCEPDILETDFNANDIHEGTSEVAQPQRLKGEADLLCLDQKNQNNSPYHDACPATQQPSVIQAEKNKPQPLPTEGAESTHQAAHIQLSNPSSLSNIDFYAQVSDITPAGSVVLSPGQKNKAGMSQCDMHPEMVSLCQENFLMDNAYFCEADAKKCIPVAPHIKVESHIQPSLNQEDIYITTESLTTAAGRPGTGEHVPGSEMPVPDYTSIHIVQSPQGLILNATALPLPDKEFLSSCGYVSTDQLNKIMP


Molecular target: T1, full-length human growth hormone …
Experiment: cell-based or functional assay

| ED50, cell proliferation (MTT assay) of FDC-P1 cells transfected with hGHR | Binder |
| --- | --- |
| 320 | GHA protein mutant b (A13V, T27V, S79A, V90I, G161M, S184A) (ligand) FPTIPLSRLFDNVMLRAHRLHQLAFDVYQEFEEAYIPKEQKYSFLQNPQTSLCFSESIPTPSNREETQQKSNLELLRIALLLIQSWLEPIQFLRSVFANSLVYGASDSNVYDLLKDLEEGIQTLMGRLEDGSPRTGQIFKQTYSKFDTNSHNDDALLKNYMLLYCFRKDMDKVETFLRIVQCRAVEGSCGF |
| 230 | GHA protein mutant f (A13V, T27V, Y28F, F54Y, S55A, S79A, S85A, V90I, G161M, S184A) (ligand) FPTIPLSRLFDNVMLRAHRLHQLAFDVFQEFEEAYIPKEQKYSFLQNPQTSLCYAESIPTPSNREETQQKSNLELLRIALLLIQAWLEPIQFLRSVFANSLVYGASDSNVYDLLKDLEEGIQTLMGRLEDGSPRTGQIFKQTYSKFDTNSHNDDALLKNYMLLYCFRKDMDKVETFLRIVQCRAVEGSCGF |
| 260 | GHA protein mutant d (A13V, T27V, S55A, S79A, S85A, V90I, G161M, S184A) (ligand) FPTIPLSRLFDNVMLRAHRLHQLAFDVYQEFEEAYIPKEQKYSFLQNPQTSLCFAESIPTPSNREETQQKSNLELLRIALLLIQAWLEPIQFLRSVFANSLVYGASDSNVYDLLKDLEEGIQTLMGRLEDGSPRTGQIFKQTYSKFDTNSHNDDALLKNYMLLYCFRKDMDKVETFLRIVQCRAVEGSCGF |
